The record followed here is patent publication US20230340160A1 (published 2023).

In assay [1] the target is T1, human MCSP expressed on tumor cells (human, UniProt Q6UVK1 30-2322).
T1 construct: whole, on cells; On Colo-38, WM266-4, MV-3 or MDA-MB-435 cells, as named in each row; also called huMCSP; Melanoma-associated Chondroitin Sulfate Proteoglycan
Put plainly: flow cytometry on Colo-38 cells, 50 nM. Here is the method:
(§1) Binding of the different bispecific constructs to CD3 on Jurkat cells (ATCC #TIB-152), and the respective tumor antigen on target cells, was determined by FACS. Briefly, cells were harvested, counted and checked for viability. 0.15 - 0.2 million cells per well (in PBS containing 0.1% BSA; 90 µl) were plated in a round-bottom 96-well plate and incubated with the indicated concentration of the bispecific constructs and corresponding IgG controls (10 µl) for 30 min at 4° C. For a better comparison, all constructs and IgG controls were normalized to same molarity. After the incubation, cells were centrifuged (5 min, 350 × g), washed with 150 µl PBS containing 0.1% BSA, resuspended and incubated for further 30 min at 4° C. with 12 µl/well of a FITC-or PE-conjugated secondary antibody. Bound constructs were detected using a FACSCantoII (Software FACS Diva). The “(scFv)₂” molecule was detected using a FITC-conjugated anti-His antibody (Lucerna, #RHIS-45F-Z). For all other molecules, a FITC- or PE-conjugated AffiniPure F(ab′)2 Fragment goat anti-human IgG Fcγ Fragment Specific (Jackson Immuno Research Lab # 109-096-098 / working solution 1:20, or #109-116-170 / working solution 1:80, respectively) was used. Cells were washed by addition of 120 µl/well PBS containing 0.1% BSA and centrifugation at 350 × g for 5 min. A second washing step was performed with 150 µl/well PBS containing 0.1% BSA. Unless otherwise indicated, cells were fixed with 100 µl/well fixation buffer (BD #554655) for 15 min at 4° C. in the dark, centrifuged for 6 min at 400 × g and kept in 200 µl/well PBS containing 0.1% BSA until the samples were measured with FACS CantoII. EC50 values were calculated using the GraphPad Prism software.
(§2) In a first experiment, different bispecific constructs targeting human MCSP and human CD3 were analyzed by flow cytometry for binding to human CD3 expressed on Jurkat, human T cell leukaemia cells, or to human MCSP on Colo-38 human melanoma cells.

For assay [2], the target named is T2, human CD3 expressed on Jurkat cells (human, UniProt P07766 23-207).
T2 construct: CD3 complex on Jurkat cells (ATCC TIB-152); also called huCD3
Briefly: flow cytometry on Jurkat cells, 50 nM. The procedure: as §1, §2

The target in assay [3] is T1, human MCSP expressed on tumor cells. Put plainly: cell-based or functional assay.
Assay [4] shares this target. Briefly: cell-based or functional assay. This is another data set of the same source.
The target is the same in assay [5]. Briefly: flow cytometry on WM266-4 cells. Here is the method:
as §1
In a final experiment, binding of the “2+1 IgG Crossfab” (SEQ ID NOs 5, 23, 215, 217) and the “2+1 IgG Crossfab, inverted” (SEQ ID NOs 5, 23, 215, 219) constructs to human CD3, expressed by Jurkat cells, and to human MCSP, expressed by WM266-4 tumor cells was determined. As depicted in FIG. 58A and FIG. 58B the binding to human CD3 was reduced for the “2+1 IgG Crossfab, inverted” compared to the other construct, but the binding to human MCSP was comparably good.

The target of assay [6] is T2, human CD3 expressed on Jurkat cells. Put plainly: flow cytometry on Jurkat cells. Here is the method:
as §1
As a control, the equivalent maximum concentration of the corresponding IgGs and the background staining due to the labeled 2ndary antibody (goat anti-human FITC-conjugated AffiniPure F(ab′)2 Fragment, Fcγ Fragment-specific, Jackson Immuno Research Lab # 109-096-098) were assessed as well.

T1 sequence (Q6UVK1 30-2322): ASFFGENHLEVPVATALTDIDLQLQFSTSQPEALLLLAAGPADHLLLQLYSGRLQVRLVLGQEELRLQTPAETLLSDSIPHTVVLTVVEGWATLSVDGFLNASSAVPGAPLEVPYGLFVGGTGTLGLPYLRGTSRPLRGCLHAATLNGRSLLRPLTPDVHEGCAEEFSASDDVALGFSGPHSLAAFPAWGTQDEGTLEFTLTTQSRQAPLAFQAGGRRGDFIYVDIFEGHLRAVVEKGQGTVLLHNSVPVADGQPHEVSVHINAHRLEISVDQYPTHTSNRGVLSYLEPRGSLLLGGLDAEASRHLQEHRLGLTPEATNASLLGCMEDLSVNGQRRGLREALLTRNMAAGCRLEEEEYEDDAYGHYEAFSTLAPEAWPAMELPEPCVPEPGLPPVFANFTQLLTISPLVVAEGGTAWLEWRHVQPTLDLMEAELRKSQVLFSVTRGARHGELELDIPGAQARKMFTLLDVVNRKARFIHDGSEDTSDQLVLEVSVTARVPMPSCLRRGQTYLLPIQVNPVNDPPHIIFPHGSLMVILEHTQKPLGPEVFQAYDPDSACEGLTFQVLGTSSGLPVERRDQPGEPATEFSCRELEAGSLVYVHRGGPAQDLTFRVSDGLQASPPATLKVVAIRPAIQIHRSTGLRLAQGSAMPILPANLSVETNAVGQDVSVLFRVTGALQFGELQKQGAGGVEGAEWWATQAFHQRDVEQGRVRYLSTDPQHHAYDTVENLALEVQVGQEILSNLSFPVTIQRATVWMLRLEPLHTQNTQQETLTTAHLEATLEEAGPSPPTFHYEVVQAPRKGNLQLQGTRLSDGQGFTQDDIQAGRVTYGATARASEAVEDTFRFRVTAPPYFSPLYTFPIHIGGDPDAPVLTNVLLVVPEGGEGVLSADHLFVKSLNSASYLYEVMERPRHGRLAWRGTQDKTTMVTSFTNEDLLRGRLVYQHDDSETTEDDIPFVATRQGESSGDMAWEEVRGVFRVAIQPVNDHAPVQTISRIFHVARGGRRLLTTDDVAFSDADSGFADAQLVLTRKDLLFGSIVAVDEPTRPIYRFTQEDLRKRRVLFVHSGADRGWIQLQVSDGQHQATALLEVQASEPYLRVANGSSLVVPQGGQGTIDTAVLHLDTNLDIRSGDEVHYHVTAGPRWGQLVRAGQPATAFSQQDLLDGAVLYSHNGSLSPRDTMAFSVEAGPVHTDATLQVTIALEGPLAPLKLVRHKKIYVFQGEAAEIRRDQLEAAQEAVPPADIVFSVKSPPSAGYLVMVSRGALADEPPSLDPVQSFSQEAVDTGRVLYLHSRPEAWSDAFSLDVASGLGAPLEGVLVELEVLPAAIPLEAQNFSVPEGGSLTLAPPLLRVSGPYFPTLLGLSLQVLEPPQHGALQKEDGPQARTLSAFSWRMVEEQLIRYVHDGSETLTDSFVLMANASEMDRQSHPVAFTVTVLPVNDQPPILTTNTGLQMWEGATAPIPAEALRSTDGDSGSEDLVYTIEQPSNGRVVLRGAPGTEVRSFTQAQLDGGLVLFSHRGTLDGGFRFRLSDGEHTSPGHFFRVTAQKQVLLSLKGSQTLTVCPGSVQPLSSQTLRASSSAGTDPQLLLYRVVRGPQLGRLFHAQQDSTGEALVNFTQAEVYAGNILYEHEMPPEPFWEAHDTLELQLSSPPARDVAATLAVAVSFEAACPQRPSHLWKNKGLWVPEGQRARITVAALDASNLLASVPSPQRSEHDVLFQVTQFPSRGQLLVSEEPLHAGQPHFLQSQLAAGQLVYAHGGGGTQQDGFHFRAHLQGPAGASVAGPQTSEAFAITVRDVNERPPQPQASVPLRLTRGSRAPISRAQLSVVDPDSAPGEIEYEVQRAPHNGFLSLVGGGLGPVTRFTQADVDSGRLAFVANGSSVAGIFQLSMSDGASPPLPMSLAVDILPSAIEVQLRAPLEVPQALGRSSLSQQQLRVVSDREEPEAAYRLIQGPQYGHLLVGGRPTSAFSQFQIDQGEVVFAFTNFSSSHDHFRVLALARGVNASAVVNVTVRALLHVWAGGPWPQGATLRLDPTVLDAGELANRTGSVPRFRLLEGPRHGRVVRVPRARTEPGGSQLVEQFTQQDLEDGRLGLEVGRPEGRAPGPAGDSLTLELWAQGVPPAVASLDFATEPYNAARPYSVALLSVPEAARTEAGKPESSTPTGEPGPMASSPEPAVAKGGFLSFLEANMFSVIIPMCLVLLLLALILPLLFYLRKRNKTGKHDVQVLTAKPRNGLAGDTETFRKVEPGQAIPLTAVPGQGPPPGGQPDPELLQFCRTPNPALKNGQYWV
T2 sequence (P07766 23-207 limits assumed): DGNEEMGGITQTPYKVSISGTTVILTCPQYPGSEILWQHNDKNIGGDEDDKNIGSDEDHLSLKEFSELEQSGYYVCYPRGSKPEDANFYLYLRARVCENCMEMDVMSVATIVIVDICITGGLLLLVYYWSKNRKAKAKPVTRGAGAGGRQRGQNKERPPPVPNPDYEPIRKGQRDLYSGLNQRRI

B1: “1+1 IgG scFab, one armed inverted” (anti-MCSP/anti-huCD3) (bispecific antibody)
heavy 1: DIVLTQSPSSLSASLGDRVTISCSASQGIRNYLNWYQQRPDGTVKLLIYYTSSLHSGVPSRFSGSGSGTDYSLTISNLEPEDIATYYCQQYSKLPWTFGGGTKLEIKRTVAAPSVFIFPPSDEQLKSGTASVVCLLNNFYPREAKVQWKVDNALQSGNSQESVTEQDSKDSTYSLSSTLTLSKADYEKHKVYACEVTHQGLSSPVTKSFNRGECSGGGSGGGSEGGGSEGGGSEGGGSEGGGSGGGSGEVQLQESGPGLVKPSQSLSLTCSVTGYSITSGYYWNWIRQFPGNKLEWMGYITYDGSNNYNPSLKNRISITRDTSKNQFFLKLNSVTTEDTATYYCADFDYWGQGTTLTVSSASTKGPSVFPLAPSSKSTSGGTAALGCLVKDYFPEPVTVSWNSGALTSGVHTFPAVLQSSGLYSLSSVVTVPSSSLGTQTYICNVNHKPSNTKVDKKVEPKSCDGGGGSGGGGSGAQDKTHTCPPCPAPEAAGGPSVFLFPPKPKDTLMISRTPEVTCVVVDVSHEDPEVKFNWYVDGVEVHNAKTKPREEQYNSTYRVVSVLTVLHQDWLNGKEYKCKVSNKALPAPIEKTISKAKGQPREPQVCTLPPSRDELTKNQVSLSCAVKGFYPSDIAVEWESNGQPENNYKTTPPVLDSDGSFFLVSKLTVDKSRWQQGNVFSCSVMHEALHNHYTQKSLSLSPGK
heavy 2: not shown
light: not shown
Take B1: the binding result in assay [1] and in assay [2] was “binds” each time.

B2: “2+1 IgG Crossfab” (anti-MCSP/anti-huCD3); VH/VL exchange (LC007/V9) (bispecific antibody)
heavy 1: DIQMTQSPSSLSASVGDRVTITCRASQDIRNYLNWYQQKPGKAPKLLIYYTSRLESGVPSRFSGSGSGTDYTLTISSLQPEDFATYYCQQGNTLPWTFGQGTKVEIKSSASTKGPSVFPLAPSSKSTSGGTAALGCLVKDYFPEPVTVSWNSGALTSGVHTFPAVLQSSGLYSLSSVVTVPSSSLGTQTYICNVNHKPSNTKVDKKVEPKSCGGGGSGGGGSEVQLQESGPGLVKPSQSLSLTCSVTGYSITSGYYWNWIRQFPGNKLEWMGYITYDGSNNYNPSLKNRISITRDTSKNQFFLKLNSVTTEDTATYYCADFDYWGQGTTLTVSSASTKGPSVFPLAPSSKSTSGGTAALGCLVKDYFPEPVTVSWNSGALTSGVHTFPAVLQSSGLYSLSSVVTVPSSSLGTQTYICNVNHKPSNTKVDKKVEPKSCDKTHTCPPCPAPEAAGGPSVFLFPPKPKDTLMISRTPEVTCVVVDVSHEDPEVKFNWYVDGVEVHNAKTKPREEQYNSTYRVVSVLTVLHQDWLNGKEYKCKVSNKALGAPIEKTISKAKGQPREPQVCTLPPSRDELTKNQVSLSCAVKGFYPSDIAVEWESNGQPENNYKTTPPVLDSDGSFFLVSKLTVDKSRWQQGNVFSCSVMHEALHNHYTQKSLSLSPGK
heavy 2: not shown
light 1: DIVLTQSPSSLSASLGDRVTISCSASQGIRNYLNWYQQRPDGTVKLLIYYTSSLHSGVPSRFSGSGSGTDYSLTISNLEPEDIATYYCQQYSKLPWTFGGGTKLEIKRTVAAPSVFIFPPSDEQLKSGTASVVCLLNNFYPREAKVQWKVDNALQSGNSQESVTEQDSKDSTYSLSSTLTLSKADYEKHKVYACEVTHQGLSSPVTKSFNRGEC
light 2: EVQLVESGGGLVQPGGSLRLSCAASGYSFTGYTMNWVRQAPGKGLEWVALINPYKGVSTYNQKFKDRFTISVDKSKNTAYLQMNSLRAEDTAVYYCARSGYYGDSDWYFDVWGQGTLVTVSSASVAAPSVFIFPPSDEQLKSGTASVVCLLNNFYPREAKVQWKVDNALQSGNSQESVTEQDSKDSTYSLSSTLTLSKADYEKHKVYACEVTHQGLSSPVTKSFNRGEC
notes: also called 2+1 IgG Crossfab (V9)
On to B2, for which, in assay [3], the “EC50 [pM] of killing (LDH release) of MV-3 cells, human PBMCs, E:T 10:1, about 24 h” value stood at 10 pM and the “EC50 [pM] of killing (LDH release) of WM266-4 cells, human PBMCs, E:T 10:1, about 24 h” value came to 12.4 pM. In assay [4], the “EC50 of killing (LDH release) of MV-3 cells, human PBMCs, E:T 10:1, 21 h” value came to 9.2 pM and the “EC50 of killing (LDH release) of WM266-4 cells, human PBMCs, E:T 10:1, 21 h” value was 33.1 pM. In addition, the response in assay [5] was half-maximal at 950 pM (EC50). In assay [6], the midpoint of the response, the EC50, lay at 1660 pM.

B3: “1+1 IgG scFab, one armed” (anti-MCSP/anti-huCD3) (bispecific antibody)
heavy 1: not shown
heavy 2: not shown
light: B2 light 1
Consider B3, for which the binding result in assay [1] and in assay [2] was “binds” each time.
